Results on nine molecules are retold here after patent US20250171550A1 (NINGBO T MAXIMUM BIOPHARMACEUTICALS, published 2025).

Substitutions are numbered along the chain they refer to. In names and notes the source's numbering stands.

To fix the notation:
T1: Biotin-BCMA-Fc (human, UniProt Q02223 1-54, labelled with NHS-biotin, sites not stated)
T1 construct: also called Biotin-BCMA-Fc protein; labeled BCMA-Fc recombinant protein; not shown: Fc part
T1 sequence (looked up): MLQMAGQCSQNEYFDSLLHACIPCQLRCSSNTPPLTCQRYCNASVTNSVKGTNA

T2: BCMA-Fc recombinant protein (human, UniProt Q02223 1-54)
T2 construct: also called human BCMA protein; BCMA protein; not shown: Fc part
T2 sequence (looked up): T1 sequence (looked up)

B1: C6 (Fc fusion)
VHH-Fc fusion chain: QVQLVESGGGLVETGSSLRLSCKSSGHSFSDYSLAWFRQAPGKEREFVAAITWSDVPRDDAVTYYRVDVKGRFTISRDNAKNTVYLQMNSLKPEDTAVYYCAVDASLVMTLTPRYWGQGTQVTVSS
notes: also called single-domain antibody C6
B2: C2 (Fc fusion)
VHH-Fc fusion chain: QVQLVESGGGLVQAGGSLRLSCVASGLTFSNYAMGWFRQGPGKDRDFVAAITRSDERQNDGVTYYRVSVKGRFTISRDNANDTVYLQMNSLKPEDTAIYYCAADPSLVFSPTLRYWGQGTLVTVSS
notes: also called single-domain antibody C2
B3: D10 (Fc fusion)
VHH-Fc fusion chain: B2 VHH-Fc fusion chain with A14P, V23A, L27F, T28S, F29L, S30N, A33V, M34I, G40A, L113P
notes: also called single-domain antibody D10
B4: single-domain antibody D1 (Fc fusion)
chain: QVQLVESGGGLVQAGGSLRLSCVASGRTSTTSVMGWFRQAPGKERRFVAAITRTDDRQNDGITYYGESVKGRFTISRDNDKNTVYLQMNSLKPEDTAVYYCAAHTSLVFTPDPRYWGQGTPVTVPS
notes: not shown: human IgG1 Fc, ligated in series to the VHH (vector Lenti-hIgG1-Fc2)
B5: single-domain antibody 48-11 (Fc fusion)
chain: QVQLVESGGGLVQAGGSLRLSCAASGHTPSNYAMGWFRQTPGKEREFVAAITWSAVTRDDAIPYYRTSVKGRFTISRDNAKNTVYLQMNSLKPEDTAVYYCAVDASLVMTPTPRYWGQGTQVTVSS
notes: Supernatant was used in flow cytometry, Protein A purified material in Biacore; not shown: human IgG1 Fc, ligated in series to the VHH (vector Lenti-hIgG1-Fc2)
B6: humanized single-domain antibody huD1 (Fc fusion)
chain: B4 chain with A14P, V23A, G66A, E67D, D80S, V84L, K92R, P93A, P121L, P125S
notes: Humanized on DP-47 frameworks, original FR2 kept; not shown: fusion partner
B7: humanized single-domain antibody huD1FGLF (Fc fusion)
chain: QVQLVESGGGLVQPGGSLRLSCAASGRTSTTSVMGWFRQAPGKGLEFVAAITRTDDRQNDGITYYADSVKGRFTISRDNSKNTLYLQMNSLRAEDTAVYYCAAHTSLVFTPDPRYWGQGTLVTVSS
notes: FR1, FR3 and FR4 replaced and FR2 mutated; Fusion partner inferred; also called huDIFGLF; not shown: fusion partner
B8: humanized single-domain antibody hu4811 (Fc fusion)
chain: B5 chain with A14P, R66A, T67D, A80S, V84L, K92R, P93A, Q121L
notes: Humanized on DP-47 frameworks, original FR2 kept; Fusion partner inferred; not shown: fusion partner
B9: humanized single-domain antibody hu4811FGLF (Fc fusion)
chain: QVQLVESGGGLVQPGGSLRLSCAASGHTPSNYAMGWFRQAPGKGLEFVAAITWSAVTRDDAIPYYADSVKGRFTISRDNSKNTLYLQMNSLRAEDTAVYYCAVDASLVMTPTPRYWGQGTLVTVSS
notes: FR1, FR3 and FR4 replaced and T45A, E49G, R50L in FR2; Fusion partner inferred; not shown: fusion partner

In one assay the target is T1, Biotin-BCMA-Fc. The assay can be described thus: flow cytometry of the induced yeast single clone displaying the VHH, Biotin-BCMA-Fc and PE-streptavidin. As for the experimental part:
After two rounds of magnetic sorting were repeated, a part of the yeast was cultured and subjected to induced expression and flow cytometry assays. Another part was directly applied onto a PAD plate, and single clones were then picked and cultured, and were incubated simultaneously with Biotin-Fc and Biotin-BCMA-Fc 24 h after induced expression, with PE-Streptavidin as a secondary antibody; after incubation, flow cytometry assays were performed, and the results are shown in FIG. 3, where 14 clones are shown to bind to Biotin-BCMA-Fc.
With B1, the “percent of cells in gate R3” value is 93.3%.
Same read-out and setting: next, B2: 95.3%; B3: 99.8%.
Consider B4, for which the binding result is recorded as “binds”.
As for B5, the “percent of cells in gate R3” value was found to be 98.4%.

The target in another assay is T2, BCMA-Fc recombinant protein. The assay can be described thus: SPR, Biacore 8K, CM5 chip; antibody captured by anti-human IgG (Fc), human BCMA protein as analyte (paragraph 147 describes the reverse format). As for the experimental part: The mouse anti-human IgG (Fc) antibody was diluted with the immobilization reagent (sodium acetate, pH 5.0): 950 μL of the immobilization reagent was added to 50 μL of the mouse anti-human IgG (Fc) antibody. The dilution was used for immobilization in eight channels. First, the surface of the CM5 chip was activated for 360 s with EDC and NHS at a flow rate of 10 μL/min. Then, the mouse anti-human IgG (Fc) antibody was injected into the channels (channels 1-8, Fc1,2) at a flow rate of 10 μL/min for about 360 s, with the level of immobilization at about 7000 to 14,000 RU. Finally, the chip was blocked with ethanolamine at 10 μL/min for 420 s.
Human BCMA protein was diluted 2-fold with the running reagent. The diluted human BCMA protein was injected into the experimental channels and the reference channels in sequence at a flow rate of 30 μL/min, and corresponding periods of association and dissociation were allowed. The association and dissociation steps were all performed in the running reagent. After each concentration analysis, the chip needed to be regenerated with magnesium chloride at a flow rate of 20 μL/min for 30 s to wash away the ligand and undissociated analyte. For the next concentration analysis, the experimental channels needed to recapture the same amount of ligand.
A KD value was calculated for each sample using Biacore 8K analysis software Biacore Insight Evaluation Software. The reference channels (Fc1) were used for background subtraction.
For B6, the Kd stood at 1.9 nM, the koff is 0.0141 s⁻¹ and the kon worked out at 7.41e+06 M⁻¹ s⁻¹.
Consider B7, for which the Kd is 9.25 nM, the koff turned out to be 0.0579 s⁻¹ and the kon is 6.26e+06 M⁻¹ s⁻¹.
B4: the Kd was 0.243 nM, the koff is 0.00212 s⁻¹ and the kon was 8.73e+06 M⁻¹ s⁻¹.
Regarding B8, the Kd was determined as 9.71 nM, the koff was 0.0698 s⁻¹ and the kon is 7.19e+06 M⁻¹ s⁻¹.
B5: the Kd turned out to be 0.0379 nM, the koff amounted to 0.0013 s⁻¹ and the kon worked out at 3.42e+07 M⁻¹ s⁻¹.
For B9 the same measures were 10.2 nM, 0.126 s⁻¹ and 1.24e+07 M⁻¹ s⁻¹.
